Experiment [1] has as its target T1, Rattus norvegicus neuronal calcium sensor-1 (NCS-1), full-length, Ca2+-bound (Rattus norvegicus, UniProt P62168 1-190).
T1 construct: Neuronal calcium sensor-1, Rattus norvegicus, Swiss-Prot P62168, full length (residues 1-190); also called Ca2+/NCS-1; rat NCS-1
Briefly: ITC; 1 mM Ca2+/NCS-1 in the syringe titrated into 100 uM D2R peptide in the cell, 25 °C, 50 mM Tris-HCl, 50 mM NaCl, 5 mM CaCl2, pH 7.5; fitted to a sequential model and to a two-site nonsequential model with stoichiometry fixed at 1:2 NCS-1:peptide. The settings on record: both partners purified. (In ITC the heat of successive injections is recorded.)

Experiment [2] has as its target T1, Rattus norvegicus neuronal calcium …. Kind of experiment: crystal structure; NCS-1 (1 mM) with 2-fold excess of GRK1 peptide; 0.12 M alcohols, 0.1 M HEPES/MOPS pH 7.5, 30% PEGMME 550 and PEG 20000, 20 °C; 2.30 Å. The settings on record: both partners purified.

What is called Kd is a measure of binding affinity in units of concentration.

B1: D2 receptor peptide (D2R peptide) (peptide)
peptide: NIEFRKAFLKILHSR
notes: terminal Arg added to improve solubility; also called D2B (copy in the N-lobe site); D2C (copy in the C-lobe site); source: synthetic peptide, bought: GenicBio, China (>95% pure)
Consider B1, for which, in experiment [1], the Kd was 40 ± 6 µM.

B2: GRK1 peptide (N terminus of G-protein-coupled receptor kinase 1, residues 1-25) (peptide)
peptide: MDFGSLETVVANSAFIAARGSFDGS
notes: also called RK25; source: synthetic peptide, bought: GenicBio, China (>95% pure)
For B2, the binding result in experiment [2] is recorded as “binds”.

(Values after PMC4513130, “Neuronal Calcium Sensor-1 Binds the D2 Dopamine Receptor and G-protein-coupled Receptor Kinase 1 (GRK1) Peptides Using Different Modes of Interactions*” (The Journal of Biological Chemistry, 2015).)
